Here are results for five molecules from publication PMC9392322, “Modulation of macrophage inflammatory function through selective inhibition of the epigenetic reader protein SP140” (BMC Biology, 2022).

Ends that are not written are not given here. Me3 = trimethyl (trimethyl-lysine)

For assay [1], the target named is T1, SP140 (Homo sapiens, UniProt Q13342).
T1 construct: 6HisFLAGTEVSP140 (687-867), PHD-Brd
In words: fluorescence polarization competition against GSK064. The class given is binding. On the technique in general: Polarisation of emitted light reports the rotation of a fluorescent probe.

In assay [2] the target is T2, 6His-Flag-Tev-SP140-PHD-Brd (687-867) (human, UniProt Q13342 687-867).
T2 construct: SP140 (Speckled 140 kDa), construct spanning the PHD and Brd domains, aa 687-867; also called SP140 (aa 687-867); source: recombinant protein; not shown: His6, N-terminal, kept; FLAG, N-terminal, kept
The assay is described as follows: fluorescence polarisation; competition: H3 peptides serially diluted, displacing 10 nM GSK306 (FAM-labelled GSK761) from 80 nM 6His…140 (687-867); 50 mM HEPES pH 7.5, 50 mM NaCl, 1 mM CHAPS, 1 mM DTT; 30 min. The settings on record: both partners purified.

Assay [3] addresses T2, 6His-Flag-Tev-SP140-PHD-Brd (687-867). The assay is described as follows: peptide or protein array; Active Motif modified histone peptide array, peptides on the slide; blocked with 3% BSA; 10 mg/mL 6His-Flag-Tev-SP140-PHD-Brd (687-867) in solution; detected with anti-6His antibody and anti-rabbit IgG HRP; in duplicate. The settings on record: both partners purified.

T2 sequence (Q13342 687-867): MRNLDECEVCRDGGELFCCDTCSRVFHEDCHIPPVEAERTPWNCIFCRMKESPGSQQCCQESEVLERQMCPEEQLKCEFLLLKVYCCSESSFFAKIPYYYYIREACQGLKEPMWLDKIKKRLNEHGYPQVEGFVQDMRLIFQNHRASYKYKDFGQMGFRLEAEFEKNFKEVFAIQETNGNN
T1 sequence (Q13342 687-867): as above

For the molecule `Cn1c(-c2ccc(C(=O)Nc3cccc(CCOC(C)(C)C)c3)cc2)nc2cc(C(=O)Nc3cccc(CCOC(C)(C)C)c3)ccc21` [GSK761], the IC50 (commonly the midpoint of a concentration-inhibition curve) in assay [1] turned out to be 0.0778 ± 0.00827 µM.

B1: biotinylated H3(+YCK) (1-18 +YCK) (peptide)
peptide: ARTKQTARKSTGGKAPRKYCK
modifications: also: biotin, position not given here
notes: histone H3, residues 1-18; numbers count on: the protein without the initiator methionine; added residues, printed as '+YCK' after 1-18; also called H3_(1-18); source: bought: Anaspec library
On to B1, for which the IC50 in assay [2] came out at 0.27 µM.

B2: biotinylated H3 (1-9) (peptide)
peptide: ARTKQTARK
modifications: also: biotin, position not given here
notes: histone H3, residues 1-9; numbers count on: the protein without the initiator methionine; source: bought: Anaspec library
For the molecule B2, in assay [2], the IC50 came out at 2.83 µM.

B3: H3K4(3Me) (1-10) (peptide)
peptide: ARTK(Me3)QTARKS
notes: histone H3, residues 1-10; numbers count on: the protein without the initiator methionine; source: bought: Anaspec library
With B3, the IC50 in assay [2] came to 12.5 µM.

B4: unmodified H3_(1-19) peptide (histone peptide array) (peptide)
peptide: ARTKQTARKSTGGKAPRKQ
notes: histone H3, residues 1-19; numbers count on: the protein without the initiator methionine; Spotted on the array slide; source: bought: Active Motif modified histone peptide array
Turning to B4, in assay [3], the binding result is on record as “binds”.
